{"source": "paper PMC5123381", "target": "T1, CD11a (human (endogenous in NK92-CD16)) (UniProt P20701)", "T1 sequence": "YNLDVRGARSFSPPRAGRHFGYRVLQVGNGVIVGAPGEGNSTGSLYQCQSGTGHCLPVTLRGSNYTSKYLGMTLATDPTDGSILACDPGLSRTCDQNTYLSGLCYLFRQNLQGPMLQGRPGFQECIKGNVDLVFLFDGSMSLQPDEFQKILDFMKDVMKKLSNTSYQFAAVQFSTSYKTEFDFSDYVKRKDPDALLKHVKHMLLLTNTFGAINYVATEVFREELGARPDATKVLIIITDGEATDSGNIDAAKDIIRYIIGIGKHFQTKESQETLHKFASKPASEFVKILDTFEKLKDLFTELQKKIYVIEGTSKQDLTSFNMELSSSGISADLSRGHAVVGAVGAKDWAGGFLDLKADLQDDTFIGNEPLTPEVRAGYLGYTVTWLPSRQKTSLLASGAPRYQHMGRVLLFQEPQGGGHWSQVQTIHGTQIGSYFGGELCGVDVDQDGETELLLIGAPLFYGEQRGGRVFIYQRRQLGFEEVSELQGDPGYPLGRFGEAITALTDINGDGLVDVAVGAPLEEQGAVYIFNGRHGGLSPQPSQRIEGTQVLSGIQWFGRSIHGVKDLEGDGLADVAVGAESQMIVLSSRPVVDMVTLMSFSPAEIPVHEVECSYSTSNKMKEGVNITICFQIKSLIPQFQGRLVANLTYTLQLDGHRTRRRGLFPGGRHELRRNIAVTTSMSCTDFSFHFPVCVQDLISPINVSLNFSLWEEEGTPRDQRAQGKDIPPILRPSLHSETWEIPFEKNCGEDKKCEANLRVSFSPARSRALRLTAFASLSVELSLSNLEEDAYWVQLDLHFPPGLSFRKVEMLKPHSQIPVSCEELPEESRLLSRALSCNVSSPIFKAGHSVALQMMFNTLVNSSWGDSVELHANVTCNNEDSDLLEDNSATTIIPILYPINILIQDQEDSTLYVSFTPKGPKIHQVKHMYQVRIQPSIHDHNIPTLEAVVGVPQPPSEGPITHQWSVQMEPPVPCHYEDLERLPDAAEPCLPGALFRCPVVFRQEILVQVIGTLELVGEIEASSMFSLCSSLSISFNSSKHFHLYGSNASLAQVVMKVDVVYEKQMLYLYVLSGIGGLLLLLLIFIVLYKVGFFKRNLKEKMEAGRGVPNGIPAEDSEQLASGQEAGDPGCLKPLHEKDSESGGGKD"}
{"substance": "ICAM-1 (from UniProt P05362 28-532) (ligand)", "values": [{"measurement": "cytotoxicity of NK92-CD16 cells against NSCLC cells (51chromium-release assay) with the ICAM1-CD11a interaction blocked", "result": 10, "unit": "%"}]}
